Assay results reported in patent US20090042782A1, “Diagnostic and therapeutic strategies for conditions associated with the FLJ13639 gene” (priority 2005, published 2009).

B1: P1-TAT: recombinant FLJ13639/P1 protein in frame with HIV TAT protein transduction domain and 6×Histidine tag; amino acid sequence SEQ ID NO:5 (protein)
chain: MRGSHHHHHHGMASMTGGQQMGRDLYDDDDKDRWGSKLGYGRKKRRQRRRGGSTMSGYPYDVPDYAGSMAGTGLESLYRSVVWFAKGLREYTKSGYESACKDFVPHDLEVQIPGRVFLVTGGNSGIGKATALEIAKRGGTVHLVCRDQAPAEDARGEIIRESGNQNIFLHIVDLSDPKQIWKFVENFKQEHKLHVLINNAGCMVNKRELTEDGLEKNFAANTLGVYILTTGLIPVLEKEHDPRVITVSSGGMLVQKLNTNDLQSERTPFDGTMVYAQNKRQQVVLTERWAQGHPAIHFSSMHPGWADTPGVRQAMPGFHARFGDRLRSEAQGADTMLWLALSSAAAAQPSGRFFQDRKPVSTHLPLATASSSPAEEEKLIEILEQLAQTFK

What was measured:
Assay type in all cases: cell-based
[1] = test system: HL60/VCR (Vincristin resistant) cells; test: MTT viability assay; conditions: 48 h
Description: Viability assays by conventional MTT assay protocol (Promega) were performed at 48 h after the beginning of the experiment.

HL60 cells = test: JC-1 mitochondrial membrane potential staining, fluorescence microscopy
Description: FIG. 14A is a graphical representation of green/red fluorescence intensity ratio data measured for treatment of HL60/VDR cells (a vinctrisin resistant cell line) as indicated for the x-axis. * indicates statistical significance.
Disruption of the mitochondrial membrane potential (Δψm) is an early event associated with apoptosis and may be one of several factors responsible for cytochrome c release (17, 18). Using JC-1 mitochondrial potential sensor (Molecular Probes, Inc) staining and fluorescence microscopy, we analyzed the Δψm in VCR (vincristin) treated HL60 cells. In healthy cells, the dye accumulates and aggregates in mitochondria, where it fluoresces bright red. In apoptotic cells, however, it cannot enter mitochondria if the Δψm is altered and fluoresces bright green as a cytoplasmic monomer. Therefore, mitochondria depolarization is indicated by a decrease of the red/green fluorescence intensity ratio.

HeLa cells = test: Lactic acid production in culture medium; conditions: treated for 3 days vs not treated
Description: Mitochondria are well known for their essential role in cell respiration and apoptosis. Cancer cells are known to have altered mitochondrial respiration, where pyruvate is catabolized in the lactic acid fermentation pathway instead of being used in the Krebbs cycle in the mitochondria, which produces energy far more efficiently. […] Culture medium was tested for lactic acid levels.

MCF7 = test: Wound healing assay, breast cancer cells; conditions: treated vs not treated
Description: FIG. 12B is a wound healing assay as depicted in FIG. 12A performed on breast cancer cells.
(§1) This was performed by growing the cells to confluence and forming a “wound” by scoring the culture with a pipette tip. The cells were then treated with P1-TAT and assessed for their ability to close the gap between the two artificially created cell populations.

CD24 protein expression = CD24 protein expression by immunofluorescence; conditions: OM9;22 ALL cell line, 48 hours of treatment
Description: (§2) The same results were obtained using the OVCAR3 ovarian cancer cell line (not shown).

UoCB1 cells = test: Matrigel invasion assay; conditions: 20 μg of P1-TAT for 48 h, treatment versus no treatment
Description: To perform the Matrigel invasion assay, cells were deposited on top of a matrigel well and chemoattractant (fetal bovine serum) solutions were positioned below the matrigel matrix. Only cells with an invasive potential will “travel” toward the chemoattractant solutions through the matrigel.

CD24 expression = CD24 expression by RT-PCR in leukemia cell lines incubated with P1-TAT
Description: Reverse transcription was done in 20 μl containing a minimum of 1.25 μg of total RNA, 1 μl of 10 mM of deoxynucleotide triphosphate (NEB, Ipswitch, Mass.), 1 μl of 0.5 μg/μl oligo (dT) 18 (IDT, Coralville, Iowa), 1 μl of 40 U/μl ribonuclease inhibitor (Fermentas, Hanover, Md.), 2 μl of 10×reaction buffer (NEB), and 0.25 μl of 200 U/μl MMLV reverse transcriptase (NEB). After incubation with 1 μl of 5U μl RNase H (NEB) for 20 minutes, multiplex PCR reaction was carried out, allowing for simultaneous detection of CD24 and FLJ13639 expression levels. The primers are: CD 24 (resulting in an amplification product of 300 pb) forward: 5′[…]3′ (SEQ ID NO:12), reverse: 5′[…]3′ (SEQ ID NO:13). The primers for FLJ13639 P1 (resulting in an amplification product of 233 pb) are the same as those described in Example 1. The reactions were of an initial denaturation at 95° C. for 10 minutes, followed by 35 cycles: denaturation, 50 seconds at 95° C., annealing 50 seconds at 54° C. and extension 60 seconds at 75° C. Actin amplification was performed as an internal control, according to the following protocol: 15 seconds at 95° C., 30 seconds at 60° C. and 60 seconds at 75° C.
After 48 hours of incubation, cells were harvested, RNA was extracted and cDNA was used for CD24 expression assessment by RT-PCR.
as §2

H520 cells = test: Wound healing assay, lung cancer cells; conditions: treated vs not treated, 5 days
Description: FIG. 12A is a photographic representation of a wound healing assay performed on lung cancer cell lines. The H520 cells were treated (or not treated) with the FLJP1-TAT and motility of cells was monitored through a light microscope to analyze closing of the created gap.
as §1

Molecule	cytotoxicity at 1 µM ([1]; HL60/VCR, Vincristin 1 μM, read-out: reduction of cell viability) [%]	effect on cell viability ([1]; Vincristin 0.1 μM)	green/red fluorescence ratio (HL60 cells; 0.1 ug of VCR alone)	green/red fluorescence ratio (HL60 cells; 1 ug of VCR alone, p<0.01)	level of lactic acid in culture medium (HeLa cells)	motility / closing of the gap (MCF7)	CD24 protein expression (CD24 protein expression)	decrease of invasion potential (UoCB1 cells) [fold]	CD24 expression (CD24 expression; OM9:22, ALL-1, K562, 207 cell lines, 20 μg of P1-TAT (data not shown))	CD24 expression levels (CD24 expression; UoCB1 cell line, increasing amount of P1-TAT, 48 hours, RT-PCR)	CD24 levels, time-course (CD24 expression; UoCB1 cells, 20 μg of P1-TAT, six hours after incubation)	motility / closing of the gap (H520 cells)	motility / closing of the gap (H520 cells; listed as FLJ13639P1-TAT)
CC[C@]1(O)C[C@H]2CN(CCc3c([nH]c4ccccc34)[C@@](C(=O)OC)(c3cc4c(cc3OC)N(C=O)[C@H]3[C@@](O)(C(=O)OC)[C@H](OC(C)=O)[C@]5(CC)C=CCN6CC[C@]43[C@@H]65)C2)C1 [Vincristin, vincristin]	90	almost no effect	low green/red fluorescence ratio	significant increase	–	–	–	–	–	–	–	–	–
B1	–	–	–	–	significantly lower level	significantly reduced the motility	down-regulated	2.4	marked CD24 down-regulation	inversely proportional	significantly downregulated	significantly reduced the motility	inhibited filling of the gap
